# Experimental data from patent US12201679B2, “Epitope-targeted peptide immunostimulants” (priority 2019, dated 2025).
# “Also recorded” adds a separate entry of the source. Ends that are not written are not given here.
# What was measured:
# [1] = system: K. pneumoniae cells (strain BAA 1705); experiment: Gentamicin protection assay: phagocytosis and opsonophagocytic killing (OPK) by macrophages; format: cell-based, Klebsiella pneumoniae; settings: 1 h, FIG. 7B
# Experimental: It also tested whether DNP-conjugated EPIs could promote the opsonophagocytic killing (OPK) of K. pneumoniae by macrophages. This was tested by using an OPK assay. Briefly, K. pneumoniae cells were treated with EPI and then anti-DNP antibody before being exposed to macrophages for either 6 or 24 hours. During this incubation period, macrophages that recognize K. pneumoniae cells will phagocytose them, and phagocytosed bacteria will remain viable for up to 6 hours, but within 24 hours are rendered inviable by OPK. Thus, macrophages were isolated after 6 and 24 hours of incubation with K. pneumoniae, lysed them, and plated and grew the lysate, which yielded bacterial colonies that reflect the phagocytosis (at 6 hrs) or OPK (at 24 hrs) of bacteria.
# Given that cy(LLFFF)-DNP (SEQ ID NO:5) recruits antibodies to K. pneumoniae surfaces, it was expected that K. pneumoniae opsonized in this manner would be more susceptible to phagocytosis by macrophages. AR-PCC-driven phagocytosis and OPK were quantified by a gentamicin protection assay, as depicted in FIG. 7A. For this assay, K. pneumoniae cells (strain BAA 1705) were treated with cy(LLFFF)-DNP (SEQ ID NO:5), opsonized by anti-DNP antibodies, and then incubated with murine bone-marrow-derived macrophages (BMDMs). BMDMs were subsequently exposed to a solution containing gentamicin, to which K. pneumoniae strain BAA 1705 is susceptible, to kill any extracellular bacteria. Phagocytosed bacteria remain viable inside BMDMs for at least 1 h, yet are rendered inviable after 24 h by OPK (FIG. 13). Macrophages harvested at 1 h and 24 h were lysed and plated to generate bacterial colonies, which were enumerated to quantify phagocytosis and OPK.
# Klebsiella pneumoniae BAA1705 was treated with DNP-PCCs followed by incubation with anti-DNP antibody, as described above in the “Cell-Based ELISAs” section. These opsonized bacteria were then used to infect BMDMs at a multiplicity of infection of 50 for 0.5 h at 37° C. Bacteria were then washed by using RPMI 1640 Media and BMDMs were left in cell culture medium containing gentamicin (100 μg/ml). After 1 h and 24 h BMDMs were washed to remove gentamicin and intracellular bacteria were harvested by lysing BMDMs in RPMI media containing 0.2% Triton X 100. Bacterial CFUs were enumerated by plating onto LB agar. Bacterial counts at 1 h indicated the degree of opsonization while those at 24 h served as a measure of microbicidal activity of macrophages. For these measurements, anti-MrkA antibody and K. pneumoniae antiserum were used at dilutions of 5 μg/mL each.
# [2] = system: K. pneumoniae (strains BAA 1705 & 2146); experiment: Whole-cell ELISA, biotinylated PCC, multidrug-resistant K. pneumoniae; format: cell-based, Klebsiella pneumoniae; settings: whole-cell ELISA, FIG. 5C
# Experimental: Detection of the binding of biotinylated PCCs to bacterial surface was performed as follows. 10^8 bacteria from a culture grown overnight were used for each test. […] After washing thrice with PBS to remove unbound PCCs, bacteria were incubated with Streptavidin-HRP (1:1000) for 1 h at 37° C. Bacteria were washed thoroughly and the TMB reagent was added until visible coloration was observed. The reaction was quenched using 2N H2SO4 and absorbance was measured at 450 nm.
# [3] = molecular target: full-length recombinant MrkA protein (Klebsiella pneumoniae, UniProt P12267); format: binding; settings: ratio of ELISA signals, FIG. 4B
# Sequence of full-length recombinant MrkA protein (P12267 23-202): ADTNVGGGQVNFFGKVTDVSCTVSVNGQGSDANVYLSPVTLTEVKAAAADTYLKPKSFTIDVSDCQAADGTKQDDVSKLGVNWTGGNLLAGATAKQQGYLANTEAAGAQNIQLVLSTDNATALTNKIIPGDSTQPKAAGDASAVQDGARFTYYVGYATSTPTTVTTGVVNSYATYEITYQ
# From the text: HPraGly is present before X1 in each peptide and Az4 follows X5 in each peptide.
# MrkA protein = MrkA protein (Klebsiella pneumoniae, UniProt P12267); experiment: Sandwich ELISA, MrkA binding in mouse sera; settings: MrkA 250 nM in 10 and 100% mouse sera
# Sequence of MrkA protein (P12267 23-202): as above
# From the text: By comparison, the addition of polyarginine tags reduced the IP to near 40% without substantial loss in MrkA avidity (three leftmost data points in FIG. 4B).
# [4] = Isocratic point, elution from C18 prep-scale column; format: physicochemical
# Experimental: PCC compounds were purified on a Waters Autopurification system, which isolated compounds based on MS peaks corresponding to protonated [M+1H]^+ and [M+2H]^2+, and/or sodium adducts [M+Na]^+ and [M+2Na]^2+. The isocratic points of PCCs were determined based on the elution of the compound from a C18 prep-scale column. Synthetic epitopes were either purified on the Waters Autopurification System, or by semi-preparative HPLC and then using matrix-assisted laser desorption/ionization mass spectroscopy to identify fractions with the desired m/z ratio. The resulting peptides were lyophilized, the yield determined by mass difference or UV-visible absorbance, and resuspended at a concentration of up to 10 mM peptide in DMSO. Peptides were stored at −80° C. before thawing for each use.
substance,measurement,setting,value
"cy(LLFFF)+R6 (LLFFFRRRRRR; also: cyclic over residues 1-5, ring closure not given here)","phagocytosis at 1 h, DNP-tagged AR-PCC plus anti-DNP (words)",[1],also enhanced phagocytosis
same,"phagocytosis at 1 h, DNP-tagged AR-PCC plus anti-DNP (words)",[1]; listed as cy(LLFFF)-R6,comparable to that of cy(LLFFF)-DNP
same,binding selectivity towards MrkA-expressing K. pneumoniae cells versus E. coli and S. typhimurium,[2],similarly high selectivity
same,stronger affinity to MrkA over cy(LLFFF),[3],22%
same,binding to MrkA protein in mouse sera,MrkA protein,binds MrkA protein in the context of sera; also recorded: bound MrkA protein in solutions of 10 and 100% mouse sera
same,isocratic point (IP),[4],~40%
same,reduction (improvement) in IP versus cy(LLFFF),[4],~35%
